Data reported in article PMC5010959.
Several values for one entry are separate records, joined by “and”; a condition that tells them apart may be missing. Equal values may be shown once.

B1: TW1 2'-F modified (XNA)
RNA: GGGUACCCACUCAGGUACGAUUGGUGCGAUAAACUAGACUCGUCAUGCGCAGUCUCCUACAGCUUUCUAGAAUUAAGCUUAGGC
modifications: 2'-fluoro pyrimidines (C and U)
B2: TW1 unmodified (structured_RNA)
RNA: B1 RNA
B3: TW3 2'-F modified (XNA)
RNA: GGGUACCCACUCAGGUACGUGGGAAUUGAGCGGGUCACACUAUAAGCACGAGCCUUAGACAGCUUUCUAGAAUUAAGCUUAGGC
modifications: 2'-fluoro pyrimidines (C and U)
B4: TW3 unmodified (structured_RNA)
RNA: B3 RNA

What was measured:
BoNT/A light chain (LCA) [1] = molecular target: T1, BoNT/A light chain (LCA) (Clostridium botulinum type A, UniProt P0DPI1 2-448)
T1 sequence (P0DPI1 2-448): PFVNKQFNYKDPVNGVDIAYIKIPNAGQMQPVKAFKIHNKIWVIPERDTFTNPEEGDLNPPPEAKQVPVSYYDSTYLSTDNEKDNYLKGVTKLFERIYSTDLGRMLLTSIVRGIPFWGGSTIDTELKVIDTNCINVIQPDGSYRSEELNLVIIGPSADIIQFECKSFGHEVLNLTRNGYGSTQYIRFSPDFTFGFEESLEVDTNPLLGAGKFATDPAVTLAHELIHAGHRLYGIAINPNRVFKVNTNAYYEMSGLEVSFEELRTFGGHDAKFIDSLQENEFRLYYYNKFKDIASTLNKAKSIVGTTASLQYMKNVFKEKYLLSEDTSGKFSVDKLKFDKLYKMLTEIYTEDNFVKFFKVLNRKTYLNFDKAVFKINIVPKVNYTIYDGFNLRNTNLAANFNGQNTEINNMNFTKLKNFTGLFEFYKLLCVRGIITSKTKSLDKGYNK

BoNT/A light chain (LCA) [2] = molecular target: T1, BoNT/A light chain (LCA); assay: SPR

Binder	IC50 (BoNT/A light chain (LCA) [1])	Ki (BoNT/A light chain (LCA) [1])	Kd (BoNT/A light chain (LCA) [2])
B1	639 ± 13 nM	433 nM and 720 nM	31.4 ± 4.4 nM
B2			109 ± 9.9 nM
B3	727 ± 12 nM	463 nM and 849 nM	27.9 ± 4.3 nM
B4			59.1 ± 7.3 nM
